From the RNAGym collection of RNA variant scans (doi:10.1073/pnas.2313332121)

B1: TPR t1 (parent)
chain: GACCAAUCUGCCCUCAGAGCUCGAGAACAUCUUCGGAUGCAGAGGAGGCAGGCUUCGGUGGCGCGAUAGCGCCAACGUCCUCAACCUCCAAUGCAUCCCACCACAUGAUGAUGCCUGAAGAGCCUUGGUUUUUUG

Variants of: B1
Experiment: polymerase ribozyme fitness, log enrichment relative to wild type (log ratio); higher = more active; in vitro selection for triplet polymerase activity
Procedure, shortened: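 In triplicate, a single round of in vitro selection was run on each mutant library, PCR-built and transcribed, covering one subunit of a heterodimeric triplet polymerase ribozyme. Frozen incubation at −7 °C followed annealing with a biotinylated primer, partner subunit and triplets, and extended constructs were then gel-excised, streptavidin-captured and taken through RT-PCR. Fitness is the logarithm of genotype enrichment over wild-type enrichment, from inverse-variance-weighted replicate averages of Illumina-sequenced inputs and outputs. […] only genotypes with ≥10 input reads and ≥1 read per output were kept.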

Variant	polymerase ribozyme fitness (log ratio)
C34G A41C C56A A66U C115A	-7.59
G36A C49A G110C	-5.65
G36A G60C U78C C79U C85A A90G	-3.89
C34G C53U G60A U87G G110C	-7.9
C34U G110U	-4.07
C34U G47A	-4.25
C34G G39A C56A G69U C79A A103U C104G G110A C115G	-7.05
G36A C82G C123U	-0.368
G36U U78G A105C	-3.65
G35C C97A	-5.43
C34A A84U	-2.81
G36C G44A G71A A75G C89A	-3.61
A37G C73A C82A A83G	-2.53
A37C A46C C62U U78G	-1.66
C34A G61A U112A C115U	-6.79
G36C C70G	-5.05
C34U C72U U106A	-4.34
G36C C49G C102A U125A	-4.36
G35A C72G U112C	-2.35
G36C G52C C70A U106A	-2.71
A37G A121C	2.11

Variant	polymerase ribozyme fitness (log ratio)
G36A A66C G120U	-1.74
A37G C53A C56A A90U A91C G113C	-2.55
G35C G63A C73A	-5.71
U33G U130A	-5.01
A37C C56G C101A G110U G127U	-4.67
G36A G77C	-1.72
G36U G61A	-1.47
G35A C40G C98U C123G	-0.89
G35U U112A	-2.86
U33C C70G	-6.4
G36C G57C G61A U106C G113U	-3.7
C34A G60A C115U	-5.48
G35C C98A A103C C123U	-5.49
C34U A50U	-3.8
G35A U78G	-4.14
C34G G60A C70A A105U G117U U126A U129A U133G	-6.69
G36U C53G C56A C72G	-3.23
U33G G39A C72G A84G A111U	-6.45
G36A C98U	-3.49
C34A U54G C94U	-2.75
C34A G48U A121U	-1.3

Variant	polymerase ribozyme fitness (log ratio)
G36C U55A U131A	-0.527
G36U C102A C123U	-2.11
G36A G52C A95G G113A	-3.73
G36C G48A G60C G61C	-3.64
C34U G63U	-4.85
C34U G63A	-3.64
C34G A74U A90C U112G	-6.64
C34U G52U G69C C79G A100G C114U	-5.24
A37C C123G	0.773
G36C C76A U106A G110A	-4.36
G36U C72G	-1.68
U33G U55A	-4.84
C34A C62U C85G U130C	-2.75
C34U A83C	-5.74
G35A G69U C101G	-2.83
G35C G63U A74U A90G C123G G127C	-6.64
G36A A121U G128A	0.119
G36U U96A	-2.69
G36C G42U C56G A74C G107U U112A C114A	-7.54
G36U C72G C124U	-0.0425
C34A C123A	-2.18

Variant	polymerase ribozyme fitness (log ratio)
C34U U87A	-4.77
G36U G63A C97U	-1.35
G36A C49A G60A A118G	-1.7
C34U G71A	-5.88
C34U C72A	-3.94
G36U U116A	-4.2
U33C G52A G58C G69A C104U U109A A111G U112A	-6.93
G36A G69A	-3.69
G36U C86G	-2.22
U33C G60C	-5.53
U33C G60U	-3.44
G36C G113U U129A	-4.27
C34A U55G G77A	-4.67
G36U A121G	0.373
G36C A46G G63U C85U C114U	-5.92
A37G C76U	-1.3
C34U U92A	-6.09
U33C C99U C123A	-7.51
A37C G71C	-1.27
G35C U81A U109A C114A C123G	-5.16
